The text below walks through data of patent publication US20220033493A1.

In test [1] the target is CaVβ2b with N-terminal deca-histidine tag (purified from E. coli). Briefly: isothermal titration calorimetry, purified proteins, 25 °C.
Test [2] has the same target. Description: isothermal titration calorimetry, nb.F3 injected into CaVβ2b, T=298K.
Test [3] has the same target. Description: isothermal titration calorimetry, purified proteins, 25 °C, nb.F3 injected into CaVβ2b.

B1: nb.F3 with N-terminal deca-histidine tag (purified from E. coli) (VHH)
VHH: QVQLQESGGGLVQAGGSLRLSCVASGRTFSSYAMGWFRQAPGKEREFVAAIDWSGGTASHADSVKGRFTISRDNAKNTVYLQMNSLKPEDTAVYYCAASSYWSRSVDEYDYWGQGTQVTVSS
In test [1], B1 registered a stoichiometry of 1. In test [2], this molecule came in with a Ka of 1.07e+08 M⁻¹, a N (stoichiometry) of 0.93, a ΔH of -14.9 kcal/mol and a ΔS (cal mol-1 K-1) of -13.8. This molecule registered a Kd in test [3] of 13.2 nM.
